In PMC3031564, “Tartronate Semialdehyde Reductase Defines a Novel Rate-Limiting Step in Assimilation and Bioconversion of Glycerol in Ustilago maydis” (PLoS ONE, 2011) one finds Km and Vmax data, which are given here for one substance.

Holding throughout (experiment): purified protein
What all share (format): biochemical, Mycosarcoma maydis

The subject of series [1] is NC(=O)C1=CN([C@@H]2O[C@H](COP(=O)(O)OP(=O)(O)OC[C@H]3O[C@@H](n4cnc5c(N)ncnc54)[C@H](O)[C@@H]3O)[C@@H](O)[C@H]2O)C=CC1. The settings on record: reduction, co-substrate tartronic semialdehyde, 40°C, varied: cofactor.
Series [2] deals with NC(=O)c1ccc[n+]([C@@H]2O[C@H](COP(=O)(O)OP(=O)(O)OC[C@H]3O[C@@H](n4cnc5c(N)ncnc54)[C@H](OP(=O)(O)O)[C@@H]3O)[C@@H](O)[C@H]2O)c1. As to conditions: oxidation, co-substrate D-glycerate, 40°C, assay buffer 50 mM glycine pH 8.5, pH 8.5, varied: cofactor.
Series [3] relates to O=CC(O)C(=O)O. As to conditions: reduction, cofactor NADH, 40°C, substrate made by enolization of lithium hydroxypyruvate (about 50% conversion, quantified by HPLC).
Series [4] deals with O=C(O)[C@H](O)CO. As to conditions: oxidation, 40°C, assay buffer 50 mM glycine pH 8.5, cofactor not stated for this row, pH 8.5.

Usually Km stands for the substrate concentration at which the rate is half of its maximum. A word on the Vmax: it is the rate approached at saturating substrate. Take “rTsr1 (Um02592, tartronate semialdehyde reductase) (Mycosarcoma maydis; E78D)”: the Km was 14.29 ± 3.1 µM in series [1], 0.30 ± 0.04 µM in series [2], 190 ± 30 µM in series [3] and 17700 ± 2300 µM in series [4]. Further, the Vmax was found to be 5.07 µmol/min/mg in series [1], 0.93 µmol/min/mg in series [2], 0.17 µmol/min/mg in series [3] and 1.14 µmol/min/mg in series [4].
